Data taken from patent publication US20050282254.

What was measured:
substrate with 6/S5 site = molecular target: T1, substrate with 6/S5 site
T1 chain: LGRAGASIFSS

substrate with 6/R5 site = molecular target: T2, substrate with 6/R5 site
T2 chain: LGRAGARIFSS

[1] = molecular target: recombinant protein of full size thioredoxine domain, protease recognition site and truncated C-terminal region (40 aa residues) of thioredoxin [thioredoxin: P0AA25]
substrate with 6/G5 site = molecular target: T3, substrate with 6/G5 site
T3 chain: LGRAGAGIFSS

B1: Pro39 (C-terminal cysteine protease domain of Semliki Forest virus non-structural protein nsP2) (protein)
chain: KVIEGPAAPVDAFQNKANVCWAKSLVPVLDTAGIRLTAEEWSTIITAFKEDRAYSPVVALNEICTKYYGVDLDSGLFSAPKVSLYYENNHWDNRPGGRMYGFNAATAARLEARHTFLKGQWHTGKQAVIAERKIQPLSVLDNVIPINRRLPHALVAEYKTVKGSRVEWLVNKVRGYHVLLVSEYNLALPRRRVTWLSPLNVTGADRCYDLSLGLPADAGRFDLVFVNIHTEFRIHHYQQCVDHAMKLQMLGGDALRLLKPGGSLLMRAYGYADKISEAVVSSLSRKFSSARVLRPDCVTSNTEVFLLFSNFDNGKRPSTLHQMNTKLSAVYAGEAMHTAGC
Substrate with 6/S5 site
  cleavage specificity, mass-spectrometry: cleavage specificity was preserved for all of these modified recognition sites (demonstrated by mass-spectrometry)
Substrate with 6/R5 site
  cleavage specificity, mass-spectrometry: cleavage specificity was preserved for all of these modified recognition sites (demonstrated by mass-spectrometry)
[1]
  cleavage efficiency, Pro39, SDS-PAGE: non structured Ter substrate is poorly cleaved while Trx substrate is effectively cleaved
Substrate with 6/G5 site
  cleavage specificity, mass-spectrometry: cleavage specificity was preserved for all of these modified recognition sites (demonstrated by mass-spectrometry)
